Measured values published in patent publication US20220056123A1, “USE OF IL-1BETA BINDING ANTIBODIES” (NOVARTIS AG, priority 2018, published 2022).
Read-outs that look alike come from different tables or passages of the source.

Key:
[1] = tested on: locally advanced or metastatic non-small cell lung cancer; set-up: species or system human; settings: in vivo
From the text: A Randomized, Double-Blind Phase III Study of Pembrolizumab+Platinum-based Chemotherapy with or without Canakinumab as First Line Therapy for Locally Advanced or Metastatic Non-squamous and Squamous Non-small Cell Lung Cancer Subjects The study population includes adult patients with first-line locally advanced stage IIIB (not eligible for definitive chemo-radiation therapy) or stage IV metastatic non-small cell lung cancer (NSCLC), without EGFR mutations or ALK translocation. Only patients who have not previously been treated with any systemic anti-cancer therapy are included, with the exception of neo-adjuvant or adjuvant therapy (if relapse has occurred more than 12 months from the end of that therapy). In addition, subjects should be without known B-RAF mutation or ROS-1 genetic aberrations.
The non-randomized safety run-in portion of the study will be done with canakinumab in combination with pembrolizumab and three platinum-based doublet chemotherapies: carboplatin+pemetrexed (patients with non-squamous tumors), cisplatin+pemetrexed (patients with non-squamous tumors), and carboplatin+paclitaxel (patients with either squamous or non-squamous tumor). Non-squamous tumor histology subjects who receive paclitaxel-carboplatin with pembrolizumab in the safety-run-in and achieve stable disease (SD) or better will receive pemetrexed maintenance after completing induction. […] The secondary objectives are to characterize safety and tolerability, pharmacokinetics, immunogenicity, and to assess the preliminary clinical anti-tumor activity. The analysis to determine the recommended phase III dose regimen (RP3R) will be conducted when at least 6 evaluable patients in each of the 3 treatment cohorts have been observed for dose limiting toxicity (DLT) for at least 42 days at the starting dose level to establish the RP3R.
At data cut-off, 6 patients (3 in A, 2 in B and 1 in C) of the 30 treated patients, discontinued the study treatment. The primary reason for treatment discontinuation was PD (3 patients in A and 1 patient each in B and C)

mouse IL-1β = mouse IL-1β (Mus musculus, UniProt P10749); test: Cross-reactivity with mouse IL-1β; type: binding
[2] = tested on: MDA-MB-231Luc2-TdTomato cells; test: Spontaneous human breast cancer metastasis to human bone implants; type: in vivo, NOD SCID mice
Procedure: FIG. 4. Pharmacological blockade of IL-1B inhibits spontaneous metastasis to human bone in vivo. Female NOD-SCID mice bearing two 0.5 cm^3 pieces of human femoral bone received intra-mammary injections of MDA-MB-231Luc2-TdTomato cells. […] All animals were culled 35 days following tumour cell injection. Effects on bone metastases (a) were assessed in vivo and immediately post-mortem by luciferase imaging and confirmed ex vivo on histological sections. Data are shown as numbers of photons per second emitted 2 minutes following sub-cutaneous injection of D-luciferin. Effects on numbers of tumour cells detected in the circulation are shown in (b). *=P<0.01. **=P<0.001. ***=P<0.0001.
To model human breast cancer metastasis to human bone implants two human bone discs were implanted subcutaneously into 10-week old female NOD SCID mice (n=10/group) under isofluorane anaesthetic. Mice received an injection of 0.003 mg vetergesic and Septrin was added to the drinking water for 1 week following bone implantation. Mice were left for 4 weeks before injecting 1×10^5 MDA-MB-231 Luc2-TdTomato, MCF7 Luc2 or T47D Luc2 cells in 20% Martigel/79% PBS/1% toluene blue into the two hind mammary fat pads. Primary tumor growth and development of metastases was monitored weekly using an IVIS […] system (Caliper Life Sciences) following sub-cutaneous injection of 30 mg/ml D-luciferin (Invitrogen). On termination of experiments mammary tumors, circulating tumor cells, serum and bone metastases were resected. RNA was processed for downstream analysis by real time PCR, and cell lysates were taken for protein analysis and whole tissue for histology as previously described (Nutter et al., 2014; Ottewell et al., 2014a). […] Tumor cells, serum, and bone were subsequently resected for downstream analysis. Bone metastases were investigated following injection of 5×10^5 MDA-MB-231 GFP (control), MDA-MB-231-IV, MDA-MB-231-IL-1B-positive or MDA-MB-231-IL-1R1-positive cells into the lateral tail vein of 6 to 8-week old female BALB/c nude mice (n=12/group). Tumor growth in bones and lungs was monitored weekly by GFP imaging in live animals. Mice were culled 28 days after tumor cell injection at which timepoint hind limbs, lungs and serum were resected and processed for microcomputed tomography imaging (pCT), histology and ELISA analysis of bone turnover markers and circulating cytokines as described (Holen et al., 2016).
Whole blood was centrifuged at 10,000×g for 5 minutes and the serum removed for ELISA assays. The cell pellet was re-suspended in 5 ml of FSM lysis solution (Sigma-Aldrich, Pool, UK) to lyse red blood cells. Remaining cells were re-pelleted, washed 3× in PBS and re-suspended in a solution of PBS/10% FCS. Samples from 10 mice per group were pooled prior to isolation of TdTomato positive tumor cells using a MoFlow High performance cell sorter (Beckman Coulter, Cambridge UK) with the […] laser line from a Coherent I-90C tenable argon ion (Coherent, Santa Clara, Calif.). TdTomato fluorescence was detected by a 555LP dichroic long pass and a 580/30 nm band pass filter. Acquisition and analysis of cells was performed using Summit 4.3 software. After sorting, cells were immediately placed in RNA protect cell reagent (Ambion, Paisley, Renfrew, UK) and stored at −80° C. before RNA extraction. For counting numbers of circulating tumor cells, TdTomato fluorescence was detected using a 561 nm laser and an YL1-A filter (585/16 emission filter). Acquisition and analysis of cells was performed using Attune N×T software.

mouse IL-1β, sequence (P10749 118-269): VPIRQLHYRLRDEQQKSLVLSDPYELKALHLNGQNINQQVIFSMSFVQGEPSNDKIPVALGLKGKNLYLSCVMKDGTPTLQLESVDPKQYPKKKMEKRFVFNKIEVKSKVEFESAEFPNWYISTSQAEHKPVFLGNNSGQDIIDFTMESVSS

canakinumab: high-affinity, fully human monoclonal antibody of the IgG1/k to interleukin-1β
AEs leading to discontinuation of one of the study drugs [1]: 3 patients
AEs leading to dose interruption: decreased neutrophil count [1]: 3 patients
AEs leading to dose interruption: decreased white blood cell count [1]: 1 patient
AEs leading to dose interruption: neutropenia [1]: 1 patient
AEs leading to dose reduction: myalgia [1]: 1 patients
AEs leading to dose reduction: peripheral neuropathy [1]: 2 patients
Grade 5 adverse events [1]: No Grade 5 adverse events were observed
patients with dose limiting toxicity (DLT) [1]: 1 patient
patients with grade 3 AEs [1]: 13 patients
patients with grade 4 AE [1]: 1 patient
cross-reactivity with mouse IL-1β (mouse IL-1β): does not cross-react to murine IL-1β
cross-reactivity with mouse IL-1β (mouse IL-1β; listed as Canakinumab): does not cross-react with mouse IL-1β
mice with metastasis detected in human bone implants ([2]; IL-1Ra 1 mg/kg daily, canakinumab sc every 14 days, from 7 days after tumor cell injection, control 7 out of 10): 1 out of 10
size of bone metastases ([2]; luciferase imaging, vs control group): smaller than those detected in the control group
tumor cells counted in whole blood ([2]; placebo 108 tumor cells/ml): 3 tumor cells/ml
